Experimental data: patent publication US20240124553A1

Tests used:
Assay in all cases: flow cytometry, transfected 293T cells
[1] = biological target: CHIKV E2-E1 envelope glycoproteins (strain S27), E2 mutant T110A (chikungunya virus strain S27) (UniProt Q8JUX5)
[2] = biological target: CHIKV E2-E1 envelope glycoproteins (strain S27), E2 mutant A41S (chikungunya virus strain S27) (UniProt Q8JUX5)
[3] = biological target: CHIKV E2-E1 envelope glycoproteins (strain S27), E2 mutant P128A (chikungunya virus strain S27) (UniProt Q8JUX5)
[4] = biological target: CHIKV E2-E1 envelope glycoproteins (strain S27), E2 mutant R68A (chikungunya virus strain S27) (UniProt Q8JUX5)
[5] = biological target: CHIKV E2-E1 envelope glycoproteins (strain S27), E2 mutant M70A (chikungunya virus strain S27) (UniProt Q8JUX5)
[6] = biological target: CHIKV E2-E1 envelope glycoproteins (strain S27), E2 mutant D43A (chikungunya virus strain S27) (UniProt Q8JUX5)
[7] = biological target: CHIKV E2-E1 envelope glycoproteins (strain S27), E2 mutant S122A (chikungunya virus strain S27) (UniProt Q8JUX5)
[8] = biological target: CHIKV E2-E1 envelope glycoproteins (strain S27), E2 mutant D117A (chikungunya virus strain S27) (UniProt Q8JUX5)
[9] = biological target: CHIKV E2-E1 envelope glycoproteins (strain S27), E2 mutant E109A (chikungunya virus strain S27) (UniProt Q8JUX5)
[10] = biological target: CHIKV E2-E1 envelope glycoproteins (strain S27), E2 mutant N72A (chikungunya virus strain S27) (UniProt Q8JUX5)
[11] = biological target: CHIKV E2-E1 envelope glycoproteins (strain S27), E2 mutant K107A (chikungunya virus strain S27) (UniProt Q8JUX5)
[12] = biological target: CHIKV E2-E1 envelope glycoproteins (strain S27), E2 mutant V50A (chikungunya virus strain S27) (UniProt Q8JUX5)
[13] = biological target: CHIKV E2-E1 envelope glycoproteins (strain S27), E2 mutant L102A (chikungunya virus strain S27) (UniProt Q8JUX5)
[14] = biological target: CHIKV E2-E1 envelope glycoproteins (strain S27), E2 mutant G82A (chikungunya virus strain S27) (UniProt Q8JUX5)
[15] = biological target: CHIKV E2-E1 envelope glycoproteins (strain S27), E2 mutant V85A (chikungunya virus strain S27) (UniProt Q8JUX5)
[16] = biological target: CHIKV E2-E1 envelope glycoproteins (strain S27), E2 mutant T42A (chikungunya virus strain S27) (UniProt Q8JUX5)
[17] = biological target: CHIKV E2-E1 envelope glycoproteins (strain S27), E2 mutant K66A (chikungunya virus strain S27) (UniProt Q8JUX5)
[18] = biological target: CHIKV E2-E1 envelope glycoproteins (strain S27), E2 mutant G95A (chikungunya virus strain S27) (UniProt Q8JUX5)
[19] = biological target: CHIKV E2-E1 envelope glycoproteins (strain S27), E2 mutant L46A (chikungunya virus strain S27) (UniProt Q8JUX5)
[20] = biological target: CHIKV E2-E1 envelope glycoproteins (strain S27), E2 mutant P75A (chikungunya virus strain S27) (UniProt Q8JUX5)
[21] = biological target: CHIKV E2-E1 envelope glycoproteins (strain S27), E2 mutant I37A (chikungunya virus strain S27) (UniProt Q8JUX5)
[22] = biological target: CHIKV E2-E1 envelope glycoproteins (strain S27), E2 mutant D77A (chikungunya virus strain S27) (UniProt Q8JUX5)
[23] = biological target: CHIKV E2-E1 envelope glycoproteins (strain S27), E2 mutant H99A (chikungunya virus strain S27) (UniProt Q8JUX5)
[24] = biological target: CHIKV E2-E1 envelope glycoproteins (strain S27), E2 mutant H131A (chikungunya virus strain S27) (UniProt Q8JUX5)
[25] = biological target: CHIKV E2-E1 envelope glycoproteins (strain S27), E2 mutant D59A (chikungunya virus strain S27) (UniProt Q8JUX5)
[26] = biological target: CHIKV E2-E1 envelope glycoproteins (strain S27), E2 mutant I74A (chikungunya virus strain S27) (UniProt Q8JUX5)
[27] = biological target: CHIKV E2-E1 envelope glycoproteins (strain S27), E2 mutant T116A (chikungunya virus strain S27) (UniProt Q8JUX5)
[28] = biological target: CHIKV E2-E1 envelope glycoproteins (strain S27), E2 mutant S51A (chikungunya virus strain S27) (UniProt Q8JUX5)
[29] = biological target: CHIKV E2-E1 envelope glycoproteins (strain S27), E2 mutant E35A (chikungunya virus strain S27) (UniProt Q8JUX5)
[30] = biological target: CHIKV E2-E1 envelope glycoproteins (strain S27), E2 mutant T126A (chikungunya virus strain S27) (UniProt Q8JUX5)
[31] = biological target: CHIKV E2-E1 envelope glycoproteins (strain S27), E2 mutant K47A (chikungunya virus strain S27) (UniProt Q8JUX5)
[32] = biological target: CHIKV E2-E1 envelope glycoproteins (strain S27), E2 mutant V113A (chikungunya virus strain S27) (UniProt Q8JUX5)
[33] = biological target: CHIKV E2-E1 envelope glycoproteins (strain S27), E2 mutant G55A (chikungunya virus strain S27) (UniProt Q8JUX5)

| Substance | Binding Reactivity (% WT) [1] [% WT] | Binding Reactivity (% WT) [2] [% WT] | Binding Reactivity (% WT) [3] [% WT] | Binding Reactivity (% WT) [4] [% WT] | Binding Reactivity (% WT) [5] [% WT] | Binding Reactivity (% WT) [6] [% WT] | Binding Reactivity (% WT) [7] [% WT] | Binding Reactivity (% WT) [8] [% WT] | Binding Reactivity (% WT) [9] [% WT] | Binding Reactivity (% WT) [10] [% WT] | Binding Reactivity (% WT) [11] [% WT] | Binding Reactivity (% WT) [12] [% WT] | Binding Reactivity (% WT) [13] [% WT] | Binding Reactivity (% WT) [14] [% WT] | Binding Reactivity (% WT) [15] [% WT] | Binding Reactivity (% WT) [16] [% WT] | Binding Reactivity (% WT) [18] [% WT] | Binding Reactivity (% WT) [19] [% WT] | Binding Reactivity (% WT) [20] [% WT] | Binding Reactivity (% WT) [21] [% WT] | other results |
| --- | --- | --- | --- | --- | --- | --- | --- | --- | --- | --- | --- | --- | --- | --- | --- | --- | --- | --- | --- | --- | --- |
| CHIKV mAb CHKV-88 (antibody) | 107 | 89.8 | 102 | 74.7 | 93.7 | 37.5 | 84.3 | 103 | 124 | 109 | 99.2 | 78.6 | 61.4 | 91.5 | 75.9 | 112 | 89 | 23.6 | 115 | 63.2 | Binding Reactivity (% WT) [17]: 103 % WT; Binding Reactivity (% WT) [22]: 94.7 % WT; Binding Reactivity (% WT) [23]: 85.6 % WT; Binding Reactivity (% WT) [24]: 56.3 % WT; Binding Reactivity (% WT) [25]: 86.1 % WT; Binding Reactivity (% WT) [26]: 106 % WT; Binding Reactivity (% WT) [27]: 110 % WT; Binding Reactivity (% WT) [28]: 96.9 % WT; Binding Reactivity (% WT) [29]: 55.9 % WT; Binding Reactivity (% WT) [30]: 95.1 % WT; Binding Reactivity (% WT) [31]: 100 % WT; Binding Reactivity (% WT) [32]: 112 % WT; Binding Reactivity (% WT) [33]: 111 % WT |
| CHIKV mAb IM-CKV065 (antibody) | 72.1 | 33.8 | 80.3 | 88.1 | 104 | 3.7 | 91.1 | 70.9 | 82.6 | 103 | 95.2 | 48.2 | 4.7 | 104 | 88.1 | 104 | 92.6 | -2.7 | 84.9 | 12.1 | Binding Reactivity (% WT) [17]: 99.6 % WT; Binding Reactivity (% WT) [22]: 61.2 % WT; Binding Reactivity (% WT) [23]: 27.5 % WT; Binding Reactivity (% WT) [24]: 3.2 % WT; Binding Reactivity (% WT) [25]: 72.8 % WT; Binding Reactivity (% WT) [26]: 0.3 % WT; Binding Reactivity (% WT) [27]: 103 % WT; Binding Reactivity (% WT) [28]: 85.6 % WT; Binding Reactivity (% WT) [29]: 11.7 % WT; Binding Reactivity (% WT) [30]: 67.2 % WT; Binding Reactivity (% WT) [31]: 85.5 % WT; Binding Reactivity (% WT) [32]: 70.4 % WT; Binding Reactivity (% WT) [33]: 86.2 % WT |
| Mxra8-Fc (mouse Mxra8 extracellular domain fused to mouse IgG2b Fc) (Fc fusion) | 99.6 | 4.9 | 122 | 66.1 | 110 | 36.2 | 101 | -0.3 | 97.4 | 128 | 84.6 | 67.8 | 22.8 | 123 | 84.6 | 95.7 | 94.6 | 4.8 | 86.7 | 36.2 | Binding Reactivity (% WT) [22]: 83.7 % WT; Binding Reactivity (% WT) [23]: 58.1 % WT; Binding Reactivity (% WT) [24]: 15.7 % WT; Binding Reactivity (% WT) [25]: 78.9 % WT; Binding Reactivity (% WT) [26]: 44.8 % WT; Binding Reactivity (% WT) [27]: 31.2 % WT; Binding Reactivity (% WT) [28]: 99.2 % WT; Binding Reactivity (% WT) [29]: 11 % WT; Binding Reactivity (% WT) [30]: 76 % WT; Binding Reactivity (% WT) [31]: 102 % WT; Binding Reactivity (% WT) [32]: 78 % WT; Binding Reactivity (% WT) [33]: 101 % WT |
